Source: paper PMC3981948 (Mucosal immunology, 2013)
Positions count from the first letter of the chain named.

What was measured:
[1] = target: T1, purified CEACAM5 mutant N70,81A (human, UniProt P06731-1 35-685, N70,81A | N70,81A); test: SPR
T1 sequence (looked up): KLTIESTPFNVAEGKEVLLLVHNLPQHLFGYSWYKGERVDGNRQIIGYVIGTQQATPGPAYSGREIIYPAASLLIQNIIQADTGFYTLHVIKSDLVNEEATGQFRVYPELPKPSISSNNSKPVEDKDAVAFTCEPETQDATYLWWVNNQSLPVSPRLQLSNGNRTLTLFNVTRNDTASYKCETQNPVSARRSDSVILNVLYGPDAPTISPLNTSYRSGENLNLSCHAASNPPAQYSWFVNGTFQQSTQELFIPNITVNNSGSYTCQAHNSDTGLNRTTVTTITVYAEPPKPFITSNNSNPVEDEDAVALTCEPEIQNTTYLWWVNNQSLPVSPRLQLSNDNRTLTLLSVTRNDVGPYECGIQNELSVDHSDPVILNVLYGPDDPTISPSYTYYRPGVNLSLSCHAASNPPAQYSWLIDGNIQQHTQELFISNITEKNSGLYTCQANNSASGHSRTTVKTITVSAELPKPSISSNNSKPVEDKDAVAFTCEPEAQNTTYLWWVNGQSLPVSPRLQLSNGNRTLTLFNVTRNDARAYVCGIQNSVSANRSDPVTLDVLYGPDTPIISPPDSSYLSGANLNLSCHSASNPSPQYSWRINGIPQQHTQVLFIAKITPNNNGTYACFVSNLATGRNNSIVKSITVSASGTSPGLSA

[2] = target: T2, purified wild type CEACAM5 (human, UniProt P06731-1 35-685); test: SPR
T2 sequence (looked up): T1 sequence (looked up) with A70N, A81N

B1: purified extracellular domain of CD8α (domain or fragment)
chain: not shown
- Kd [1]: 16 µM
- koff [1]: 0.0047 s⁻¹
- kon [1]: 290 M⁻¹ s⁻¹
- Kd [2]: 22 nM
- koff [2]: 0.00056 s⁻¹
- kon [2]: 26000 M⁻¹ s⁻¹
